From publication PMC11357225 come the findings set out here.

The target in assay [1] is human lactoferrin (human).
Assay [2] concerns the target human lactoferrin (human). The experiment in a line: SPR. In general terms: Surface plasmon resonance follows binding to a sensor surface in real time, without labels.
Assay [3] concerns the target human lactoferrin (human). Put plainly: native gel or EMSA. In general terms: Mobility shift assays separate free from complexed probe on a gel.

Several values for one entry are separate records, joined by “and”; a condition that tells them apart may be missing. Equal entries are not always repeated.

The substance “SARS-CoV-2 spike protein (S-protein), ancestral Wuhan-like variant (from UniProt P0DTC2 14-1213) (natural protein)” came in with a percent of input bound in assay [1] of 60%. In assay [2], the Kd turned out to be 4.32 nM.

In the case of “receptor-binding domain of the SARS-CoV-2 S-protein, ancestral Wuhan-like variant (from UniProt P0DTC2) (domain or fragment)”, the percent of input bound in assay [1] is 30%. In assay [3], the stoichiometry N worked out at 1. In assay [2], the Kd was 1260 nM and 1310 nM; the dissociation rate constant (koff) is 0.308 s⁻¹; the kon stood at 245000 M⁻¹ s⁻¹.

As usually defined, the Kd is the equilibrium constant for the complex coming apart. Low values mean higher affinity, high ones lower affinity. A word on the stoichiometry N: it is the number of molecules, sites or subunits per partner or assembly. For orientation: koff means the rate constant with which the complex falls apart. A higher koff goes with a short-lived complex. What is called kon is a measure of how fast the partners come together. A high value points to fast association.
